In assay [1] the target is KDR (VEGFR-2), full-length receptor on cells (human), P35968. Put plainly: competitor 125I-VEGF (300 pM) on KDR-transfected 293H cells; peptide 0.3 µM. The following applies: remark: other sources report otherwise.
For assay [2] the target is unchanged. Put plainly: competitor 125I-VEGF (300 pM) on KDR-transfected 293H cells; peptide 30 µM. The following applies: remark: other sources report otherwise.

Bridge positions count the residues as written; N and C are the ends. Side chains are listed from the residue outwards. * marks the point of attachment. Biotin = O=C1N[C@H]2[C@H](CS[C@H]2CCCCC(=O)*)N1; AEEA = NCCOCCOCC(=O)O

Chain of KDR (VEGFR-2), full-length receptor on cells (human), P35968 (P35968 20-1356): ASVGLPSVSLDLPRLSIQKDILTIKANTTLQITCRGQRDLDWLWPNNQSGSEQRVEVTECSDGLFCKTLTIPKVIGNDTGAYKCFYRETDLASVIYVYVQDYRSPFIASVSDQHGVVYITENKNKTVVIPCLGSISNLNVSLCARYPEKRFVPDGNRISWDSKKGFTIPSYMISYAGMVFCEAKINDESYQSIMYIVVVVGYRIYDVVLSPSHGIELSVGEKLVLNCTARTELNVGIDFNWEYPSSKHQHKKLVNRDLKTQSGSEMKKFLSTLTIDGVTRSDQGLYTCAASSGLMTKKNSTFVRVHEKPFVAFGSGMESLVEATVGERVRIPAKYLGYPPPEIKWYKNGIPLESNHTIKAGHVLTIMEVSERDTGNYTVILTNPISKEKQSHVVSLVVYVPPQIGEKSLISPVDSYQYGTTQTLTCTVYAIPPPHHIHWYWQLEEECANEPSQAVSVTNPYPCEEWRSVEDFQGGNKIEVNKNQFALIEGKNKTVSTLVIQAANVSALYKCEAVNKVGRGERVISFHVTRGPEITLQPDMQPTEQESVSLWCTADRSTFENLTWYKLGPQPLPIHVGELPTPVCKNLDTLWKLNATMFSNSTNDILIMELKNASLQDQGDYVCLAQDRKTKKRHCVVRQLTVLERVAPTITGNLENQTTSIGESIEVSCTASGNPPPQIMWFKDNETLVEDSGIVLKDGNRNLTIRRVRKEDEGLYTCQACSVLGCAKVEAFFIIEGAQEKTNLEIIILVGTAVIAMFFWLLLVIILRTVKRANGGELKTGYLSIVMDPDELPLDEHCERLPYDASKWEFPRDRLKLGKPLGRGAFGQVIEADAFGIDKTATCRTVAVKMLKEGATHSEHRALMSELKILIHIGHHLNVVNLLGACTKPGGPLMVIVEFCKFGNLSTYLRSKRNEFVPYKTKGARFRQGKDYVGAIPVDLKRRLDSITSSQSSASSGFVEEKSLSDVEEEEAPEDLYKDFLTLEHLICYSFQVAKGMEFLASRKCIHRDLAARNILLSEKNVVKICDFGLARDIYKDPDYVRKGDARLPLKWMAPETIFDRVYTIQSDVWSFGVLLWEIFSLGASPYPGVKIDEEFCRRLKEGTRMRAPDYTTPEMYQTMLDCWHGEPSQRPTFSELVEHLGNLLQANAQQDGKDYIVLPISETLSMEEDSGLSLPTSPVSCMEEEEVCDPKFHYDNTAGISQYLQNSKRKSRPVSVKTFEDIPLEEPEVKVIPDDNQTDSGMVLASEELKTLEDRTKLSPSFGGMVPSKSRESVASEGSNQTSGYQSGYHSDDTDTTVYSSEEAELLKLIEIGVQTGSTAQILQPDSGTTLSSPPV

B1: biotinylated SEQ ID NO:264 with a JJ spacer (peptide)
peptide: Ac-AGPKWCEEDWYYCMITGTGGGK([AEEA-AEEA-Biotin])-NH2
modifications: disulfide 6-13 (inferred)
For the molecule B1, the % inhibition of 125I-labeled VEGF binding in assay [1] amounted to 24.4%; in assay [2] it was 48%.

These data come from US20050250700A1.
